This is an account of results in patent publication US20260152552A1 (CURON BIOPHARMACEUTICAL SHANGHAI, published 2026).

First the molecules themselves.
B1: anti-L1CAM human-mouse chimeric antibody ch49E10H1 (antibody, V domains shown)
VH: DVQLQESGPGLVKPSQSLSLTCTVTGYSITSDYAWNWIRQFPGNRLEWMGYITYSGTTTYNPSLKSRISITRDTSKNQFFLQLNSVTTADTATYYCTLDHYGNYAYFDYWGQGTTLTVSS
VL: QIVLSQSPAILSASPGEKVTMTCRASSSVSFMHWYQQKPRSSPKPWIYASSNLVSGVPTRFSGSGSGTSYSLTISRVEAEDAATYYCQQWSSNPSTFGAGTKLELK
notes: VH and VL of mouse 49E10H1 with human IgG1 constant regions; The entries as printed seem to begin with a leader peptide
B2: anti-L1CAM human-mouse chimeric antibody ch103E9B3 (antibody, V domains shown)
VH: EVQLQQSGPELLKPGASVKISCKASGYTFTSYTMHWVKQSHGKSLEWIGDINPNYGGTSYNEKFKDKATLTVDKSSSTAYMELRSLTSEDSAVYYCAREGATGTWYFDVWGTGTTVTVSS
VL: QIVLTQSPALMSASPGEKVTMTCSASSSVSFMFWYQQKPRSSPKPWIYLTSNLASGVPARFSGSGSGTSYSLTISSMEAEDAATYYCQQWRSNPPTFGAGTKLELK
notes: VH and VL of mouse 103E9B3 with human IgG1 constant regions; The entries as printed seem to begin with a leader peptide
B3: anti-L1CAM human-mouse chimeric antibody ch46F1D5 (antibody, V domains shown)
VH: QVQVQQSGAELAKPGASMKMSCKASGYTFTRYWMQWVKQRPGQGLEWIGYINPSTGYTDYNQNFKDKATLTADKSSSTAYMQLSSLTSEDSAVYYCARRHLGLPLFDYWGQGTTLTVSS
VL: DIVMTQSHKFMSTSLGDRVSITCKASQDVGTAVAWYQQKPGQSPKLLIYWASTRHTGVPDRFTGSGSGTDFTLTISNVQSEDLAEYFCQQYSNYPLTFGAGTKLDLK
notes: VH and VL of mouse 46F1D5 with human IgG1 constant regions; The entries as printed seem to begin with a leader peptide
B4: anti-L1CAM human-mouse chimeric antibody ch26A12C1 (antibody, V domains shown)
VH: B3 VH with V4L, M18V, R31N, G56Y, T58S, N63K, Y80F, H100Q, L101F, V117L
VL: B3 VL with L15V, A84T, E85D, K103E, D105E
notes: VH and VL of mouse 26A12C1 with human IgG1 constant regions; The entries as printed seem to begin with a leader peptide
B5: anti-L1CAM human-mouse chimeric antibody ch25F8H8 (antibody, V domains shown)
VH: B3 VH with V4L, M18V, K23Q, R31T, Q35H, N63K, H100Q
VL: B3 VL with M11L, L15V, Q38H, Y49F, E85D, T102P, D105E
notes: VH and VL of mouse 25F8H8 with human IgG1 constant regions (CH1, CH2, CH3)
B6: humanized anti-L1CAM antibody hz49E10H1H7L5 (antibody, V domains shown)
VH: QVQLQESGPGLVKPSQTLSLTCTVSGGSISSDYAWNWIRQPPGKGLEWMGYITYSGTTTYNPSLKSRITISRDTSKNQFSLKLSSVTAADTAVYYCTLDHYGNYAYFDYWGQGTTVTVSS
VL: DIQMTQSPSSLSASVGDRVTITCRASSSVSFMHWYQQKPGKAPKLLIYASSNLVSGVPSRFSGSGSGTDFTLTISSLQPEDFATYYCQQWSSNPSTFGGGTKVEIK
B7: humanized anti-L1CAM antibody hz103E9B3H6L5 (antibody, V domains shown)
VH: EVQLVQSGAEVKKPGASVKVSCKASGYTFTSYTMHWVRQAPGQGLEWMGDINPNYGGTSYNEKFKDRATMTTDTSTSTAYMELRSLRSDDTAVYYCAREGATGTWYFDVWGQGTTVTVSS
VL: B6 VL with R24S, H33F, L45P, A49L, S50T, V54A, S91R, S95P
B8: humanized anti-L1CAM antibody hz103E9B3H9L4 (antibody, V domains shown)
VH: B7 VH with M48I, M70L, T72V, T74K
VL: B6 VL with R24S, H33F, A49L, S50T, V54A, S91R, S95P
B9: humanized anti-L1CAM antibody hz49E10H1H8L6 (antibody, V domains shown)
VH: B6 VH with Q1D, K44N
VL: B6 VL with L45P, L46W
B10: humanized anti-L1CAM antibody hz103E9B3H9L5 (antibody, V domains shown)
VH: B7 VH with M48I, M70L, T72V, T74K
VL: B6 VL with R24S, H33F, L45P, A49L, S50T, V54A, S91R, S95P
B11: humanized anti-L1CAM antibody hz49E10H1H7L7 (antibody, V domains shown)
VH: B6 VH
VL: B6 VL with D1Q, L45P, L46W, F70Y
B12: humanized anti-L1CAM antibody hz103E9B3H5L5 (antibody, V domains shown)
VH: B7 VH with A68V
VL: B6 VL with R24S, H33F, L45P, A49L, S50T, V54A, S91R, S95P
B13: humanized anti-L1CAM antibody hz49E10H1H8L7 (antibody, V domains shown)
VH: B6 VH with Q1D, K44N
VL: B6 VL with D1Q, L45P, L46W, F70Y
B14: humanized anti-L1CAM antibody hz49E10H1H8L5 (antibody, V domains shown)
VH: B6 VH with Q1D, K44N
VL: B6 VL
B15: humanized anti-L1CAM antibody hz103E9B3H9L6 (antibody, V domains shown)
VH: B7 VH with M48I, M70L, T72V, T74K
VL: B6 VL with R24S, H33F, L45P, L46W, A49L, S50T, V54A, S91R, S95P
B16: humanized anti-L1CAM antibody hz103E9B3H7L6 (antibody, V domains shown)
VH: B7 VH with M48I, M70L
VL: B6 VL with R24S, H33F, L45P, L46W, A49L, S50T, V54A, S91R, S95P
B17: humanized anti-L1CAM antibody hz103E9B3H5L4 (antibody, V domains shown)
VH: B7 VH with A68V
VL: B6 VL with R24S, H33F, A49L, S50T, V54A, S91R, S95P
B18: humanized anti-L1CAM antibody hz103E9B3H6L6 (antibody, V domains shown)
VH: B7 VH
VL: B6 VL with R24S, H33F, L45P, L46W, A49L, S50T, V54A, S91R, S95P
B19: humanized anti-L1CAM antibody hz103E9B3H6L4 (antibody, V domains shown)
VH: B7 VH
VL: B6 VL with R24S, H33F, A49L, S50T, V54A, S91R, S95P
B20: humanized anti-L1CAM antibody hz103E9B3H5L6 (antibody, V domains shown)
VH: B7 VH with A68V
VL: B6 VL with R24S, H33F, L45P, L46W, A49L, S50T, V54A, S91R, S95P
B21: humanized anti-L1CAM antibody hz103E9B3H7L5 (antibody, V domains shown)
VH: B7 VH with M48I, M70L
VL: B6 VL with R24S, H33F, L45P, A49L, S50T, V54A, S91R, S95P
B22: humanized anti-L1CAM antibody hz103E9B3H7L4 (antibody, V domains shown)
VH: B7 VH with M48I, M70L
VL: B6 VL with R24S, H33F, A49L, S50T, V54A, S91R, S95P

Substitutions are numbered along the chain they refer to.

In the first assay the target is T1, human L1CAM (L1 cell adhesion molecule), endogenously expressed on the surface of HeLa cells (human, UniProt P32004 20-1257).
T1 construct: whole, on cells; also called CD171
T1 sequence (P32004 20-1257): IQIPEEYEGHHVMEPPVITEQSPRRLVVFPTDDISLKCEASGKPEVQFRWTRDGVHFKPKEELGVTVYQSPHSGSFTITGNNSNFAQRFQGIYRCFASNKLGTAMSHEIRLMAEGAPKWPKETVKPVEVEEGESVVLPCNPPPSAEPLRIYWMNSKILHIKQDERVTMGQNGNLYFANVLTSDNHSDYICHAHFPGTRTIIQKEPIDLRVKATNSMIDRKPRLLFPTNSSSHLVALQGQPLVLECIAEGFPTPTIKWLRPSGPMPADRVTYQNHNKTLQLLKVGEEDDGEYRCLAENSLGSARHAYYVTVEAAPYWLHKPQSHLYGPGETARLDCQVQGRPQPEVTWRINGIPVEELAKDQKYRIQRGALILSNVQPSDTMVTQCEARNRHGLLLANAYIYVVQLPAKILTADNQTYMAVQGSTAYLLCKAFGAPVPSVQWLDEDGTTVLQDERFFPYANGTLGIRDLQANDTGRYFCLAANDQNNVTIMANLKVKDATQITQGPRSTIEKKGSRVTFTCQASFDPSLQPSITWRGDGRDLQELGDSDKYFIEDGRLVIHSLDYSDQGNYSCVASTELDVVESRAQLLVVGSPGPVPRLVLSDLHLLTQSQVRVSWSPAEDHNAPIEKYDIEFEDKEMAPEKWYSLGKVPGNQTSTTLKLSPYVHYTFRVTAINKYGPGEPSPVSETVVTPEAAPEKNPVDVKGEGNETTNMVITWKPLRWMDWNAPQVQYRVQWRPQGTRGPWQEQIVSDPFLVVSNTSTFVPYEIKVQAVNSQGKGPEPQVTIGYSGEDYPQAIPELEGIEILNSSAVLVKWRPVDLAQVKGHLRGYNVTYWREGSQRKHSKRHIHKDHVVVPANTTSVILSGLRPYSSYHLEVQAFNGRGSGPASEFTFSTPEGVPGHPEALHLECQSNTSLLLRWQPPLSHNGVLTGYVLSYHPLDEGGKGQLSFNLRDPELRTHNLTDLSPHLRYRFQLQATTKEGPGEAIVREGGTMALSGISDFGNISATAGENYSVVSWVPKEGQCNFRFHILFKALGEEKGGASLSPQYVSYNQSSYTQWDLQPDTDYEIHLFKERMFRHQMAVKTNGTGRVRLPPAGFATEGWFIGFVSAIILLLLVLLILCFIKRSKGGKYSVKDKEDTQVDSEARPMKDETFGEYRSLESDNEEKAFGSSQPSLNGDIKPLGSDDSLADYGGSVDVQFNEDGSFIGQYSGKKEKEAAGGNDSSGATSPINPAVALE
The assay is described as follows: flow cytometry on HeLa cells (endogenous human L1CAM). The method, then:
This example utilizes HeLa cells and L1CAM-knockout HeLa cells (purchased from Abcam) to determine the binding of mouse anti-L1CAM monoclonal antibodies to endogenously expressed human L1CAM on the cell surface. L1CAM-knockout HeLa cells are referred to as HeLa KO cells in this invention. HeLa cells are cultured in DMEM complete medium (purchased from Corning) containing 10% FBS (purchased from Gibco) and 100 U/mL penicillin mixture (Thermofisher, 15140122). […] Then, the human-mouse chimeric antibodies are serially diluted in DMEM complete medium, with 25 μL of the diluted chimeric antibody solution added to each well, gently mixed, and incubated at 4° C. for 1 hour. Then, 150 μL of PBS buffer containing 2% FBS (purchased from Corning) is added to each well, centrifuged at 1400 rpm for 4 minutes, the supernatant is removed, and the wells are washed once more. Then, 50 μL of Alexa Flour 647-labeled goat anti-human fluorescent secondary antibody (purchased from Jacksonimmuno) diluted 1:800 is added to each well, and the 96-well plate is incubated at 4° C. for 0.5 hours. The cells are washed twice with PBS solution containing 2% FBS, then resuspended in 120 μL of PBS, and the cell surface fluorescence signal is detected using a flow cytometer (BD FACSCelesta), obtaining the median fluorescence intensity (MFI). A dose-response curve is generated, and the half-maximal effective concentration (EC50) is calculated using non-linear regression with GraphPad software.
Background: A flow cytometer gives signals particle by particle.
On to B1, for which a half-maximal response (EC50) required 0.978 nM and the “Maxium MFI” value came out at 42900 MFI.

Regarding B2, a half-maximal response (EC50) required 1.11 nM and the “Maxium MFI” value stood at 45400 MFI. For B3 the same measures were 0.845 nM and 43100 MFI. For B4, the response was half-maximal at 0.739 nM (EC50) and the “Maxium MFI” value was determined as 44700 MFI. As for B5, the EC50 came out at 0.833 nM and the “Maxium MFI” value was found to be 29300 MFI.

The target of the next assay is T1, human L1CAM (L1 cell adhesion …). The description is as above. This is another data set of the same source. The procedure: The experimental principle is as follows: HeLa cells express high levels of L1CAM protein on their surface. After incubating humanized L1CAM antibodies with the cells, the binding ability of the antibodies to L1CAM on the surface of HeLa cells can be determined by flow cytometry. The experimental method is descripted as following: Humanized L1CAM antibodies (Human IgG1-Kappa) are diluted in complete medium in a four-fold serial dilution, with seven concentration gradient points. HeLa cells are cultured in DMEM complete medium (Corning, 10-013-CVR) containing 10% FBS (Gibco, 10099-141) and 100 U/mL penicillin mixture (Thermofisher, 15140122). When the cell coverage in the culture container reaches 80-90%, TrypLE (Thermofisher, 12604-013) is used to digest the HeLa cells from the culture container, and they are seeded in a 96-well plate (AXYGEN, P-96-450V-C) at a density of 2.2×10⁶ cells/ml, with 100,000 cells (45 μL complete medium) per well. Then, 5 μL of the antibody dilution is added to each well, gently mixed, and the 96-well plate is incubated at 4° C. for 1 hour. Then, 150 μL of PBS solution containing 2% FBS (Corning, 21-040-CVC) is added to each well, centrifuged at 1400 rpm for 4 minutes, the supernatant is removed, and the wells are washed once more. Then, 50 μL of Alexa Flour 647-labeled goat anti-human fluorescent secondary antibody (Jacksonimmuno, 109-605-088) diluted 1:800 is added to each well, and the 96-well plate is incubated at 4° C. for 0.5 hours. The cells are washed twice with PBS solution containing 2% FBS, then resuspended in 120 μL of PBS, and the cell surface fluorescence signal is detected using a flow cytometer (BD FACS Celesta), obtaining the median fluorescence intensity (MFI). A dose-response curve is generated, and the half-maximal effective concentration (EC50) is calculated using non-linear regression with GraphPad software.
For B6, the EC50 is 10.4 nM. B7 registered an EC50 of 1.48 nM. Consider B8, for which the EC50 was 5.56 nM. With B9, a half-maximal response (EC50) required 1.06 nM. Turning to B10, a half-maximal response (EC50) required 1.96 nM. The molecule B11 registered a concentration giving a half-maximal response (EC50) of 0.852 nM. Still for that read-out and setting: as for B12, the figure is 1.68 nM. Take B13: the 50% effective concentration (EC50) was 0.82 nM. B14 gave an EC50 of 9.27 nM. Turning to B15, the EC50 was 2.06 nM. B16 yielded a concentration for a half-maximal effect (EC50) of 2.03 nM. B17 showed a concentration giving a half-maximal response (EC50) of 6.84 nM.

Consider B18, for which a half-maximal effect (EC50) was put at 2.18 nM.

The molecule B19 gave an EC50 of 6.59 nM.

The molecule B20 returned a half-maximal effective concentration (EC50) of 1.93 nM. The same measure, in the same setting: as for B21, the figure is 2.13 nM; as for B22, 5.32 nM.

B2 returned a half-maximal effective concentration (EC50) of 1.21 nM.

The term EC50 denotes the concentration giving half of the maximal effect. Low values mean higher potency in that assay, high ones lower potency in that assay.
